Data from patent US20250163183.

Target: LP3, LP9, LP11, and LP18

B1: human activated protein C (APC) (protein)
chain: ANSFLEELRHSSLERECIEEICDFEEAKEIFQNVDDTLAFWSKHVDGDQCLVLPLEHPCASLCCGHGTCIDGIGSFSCDCRSGWEGRFCQREVSFLNCSLDNGGCTHYCLEEVGWRRCSCAPGYKLGDDLLQCHPAVKFPCGRPWKRMEKKRSHLLIDGKMTRRGDSPWQVVLLDSKKKLACGAVLIHPSWVLTAAHCMDESKKLLVRLGEYDLRRWEKWELDLDIKEVFVHPNYSKSTTDNDIALLHLAQPATLSQTIVPICLPDSGLAERELNQAGQETLVTGWGYHSSREKEAKRNRTFVLNFIKIPVVPHNECSEVMSNMVSENMLCAGILGDRQDACEGDSGGPMVASFHGTWFLVGLVSWGEGCGLLHNYGVYTKVSRYLDWIHGHIRDKEAPQKSWAP
B1 was tested. Which “APC-mediated SEAP-PAR1 cleavage at 0.7-6 nM nanobody” value did it give?
The value was “reduced PAR1 cleavage down to 73-82% of controls”.
